From patent publication US20220185908A1
pEC50: −log10 of the molar value. Where two headings read alike, the source gives them in different places.

Tests used:
[1] = target: CD38 on cells (Raji, Daudi, REH, CD38-transfected HEK293) (human) (UniProt P28907); experiment: flow cytometry, Raji cells expressing CD19 and CD38
[2] = target: CD38 on cells (Raji, Daudi, REH, CD38-transfected HEK293) (human) (UniProt P28907); experiment: flow cytometry, Raji cells; top asymptote fixed at about the maximum response of Darzalex
[3] = target: CD38 on cells (Raji, Daudi, REH, CD38-transfected HEK293) (human) (UniProt P28907); experiment: flow cytometry, Raji cells expressing CD19 and CD38; remark: listed apart in the source

In the case of Darzalex ® (CD38 control) (antibody), the pEC50 [1] was 8.90, the Adjusted EC50 [2] was 1.27 nM and the EC50 [3] was 0.195 µg/mL. The Max MFI [3] was 4.02e+06 MFI.
